Experiments:
[1] = target: T1, IL-10 receptor signaling complex on mouse splenocytes (CD8 T cells, NK cells, B cells) (mouse, UniProt Q61727 17-575; Q61190 20-349); assay: cell-based or functional assay
T1 sequence (looked up) 1: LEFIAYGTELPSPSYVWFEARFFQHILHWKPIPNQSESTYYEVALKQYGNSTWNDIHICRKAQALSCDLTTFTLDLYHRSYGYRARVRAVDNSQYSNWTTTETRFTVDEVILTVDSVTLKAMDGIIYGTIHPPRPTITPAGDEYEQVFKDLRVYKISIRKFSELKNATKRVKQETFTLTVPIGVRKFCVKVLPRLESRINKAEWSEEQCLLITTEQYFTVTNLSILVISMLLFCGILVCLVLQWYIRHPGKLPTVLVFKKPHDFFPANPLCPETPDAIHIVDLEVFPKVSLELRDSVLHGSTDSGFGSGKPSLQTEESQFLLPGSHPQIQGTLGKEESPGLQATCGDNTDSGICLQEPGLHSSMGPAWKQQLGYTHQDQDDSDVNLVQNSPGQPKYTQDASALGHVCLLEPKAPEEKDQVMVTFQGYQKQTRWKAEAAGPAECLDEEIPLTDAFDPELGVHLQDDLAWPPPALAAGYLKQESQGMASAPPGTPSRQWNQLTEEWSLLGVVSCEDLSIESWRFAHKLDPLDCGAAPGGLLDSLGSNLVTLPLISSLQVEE
T1 sequence (looked up) 2: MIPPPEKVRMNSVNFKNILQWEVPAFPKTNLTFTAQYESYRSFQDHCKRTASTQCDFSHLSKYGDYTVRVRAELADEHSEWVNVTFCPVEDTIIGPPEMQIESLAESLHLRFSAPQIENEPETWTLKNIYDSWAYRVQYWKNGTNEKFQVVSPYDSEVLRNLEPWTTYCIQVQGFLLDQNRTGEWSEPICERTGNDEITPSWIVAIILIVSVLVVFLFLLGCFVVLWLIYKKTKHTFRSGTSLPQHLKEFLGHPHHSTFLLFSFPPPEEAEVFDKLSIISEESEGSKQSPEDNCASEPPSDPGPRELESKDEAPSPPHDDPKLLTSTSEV

[2] = target: T1, IL-10 receptor signaling complex on …; assay: cell-based or functional assay; remark: listed apart in the source

B1: Wild-type His-IL-10 (ligand)
chain: MHHHHHHGSSENLYFQSPGQGTQSENSCTHFPGNLPNMLRDLRDAFSRVKTFFQMKDQLDNLLLKESLLEDFKGYLGCQALSEMIQFYLEEVMPQAENQDPDIKAHVNSLGENLKTLRLRLRRCHRFLPCENKSKAVEQVKNAFNKLQEKGIYKAMSEFDIFINYIEAYMTMKIRN
EC50, STAT3 phosphorylation, B cells, B57BL/6 mouse splenocytes [1]: 0.83 ng/mL | EC50, STAT3 phosphorylation, CD8 T cells, B57BL/6 mouse splenocytes [1]: 3.65 ng/mL | EC50, STAT3 phosphorylation, NK cells, B57BL/6 mouse splenocytes [1]: 1.06 ng/mL | EC50, STAT3 phosphorylation, B cells, Balb/c mouse splenocytes [2]: 1.3 ng/mL | EC50, STAT3 phosphorylation, CD8 T cells, Balb/c mouse splenocytes [2]: 4.07 ng/mL | EC50, STAT3 phosphorylation, NK cells, Balb/c mouse splenocytes [2]: 1.08 ng/mL

From patent US20220273767A1 (SYNTHORX, published 2022)
